The target of assay [1] is T1, BG505 SOSIP.664 trimer (HIV-1).
T1 construct: domain: gp120;domain: gp41 ectodomain; also called soluble BG505 SOSIP
Briefly: SPR, trimer immobilized by anti-histidine capture, Biacore 3000, 25 C (FIG. 2D). For orientation: Surface plasmon resonance follows binding to a sensor surface in real time, without labels.

Assay [2] addresses T2, HIV YU2 gp160 extracellular domain (gp140) foldon trimer (HIV-1, UniProt P35961 32-671).
T2 construct: extracellular domain; also called HIVYU2 gp140 foldon trimer; not shown: foldon trimerisation domain
Briefly: ELISA, antigen coated at 2 ug/ml. A general note: In an ELISA, binding on a coated surface is turned into a signal by an enzyme label.

Assay [3] concerns the target T3, HIV YU2 gp41 monomer (HIV-1, UniProt P35961 499-671).
T3 construct: domain: gp41
In words: ELISA, antigen coated at 2 ug/ml.

Assay [4] has as its target T4, HIV YU2 gp120 monomer (HIV-1, UniProt P35961 32-498).
T4 construct: domain: gp120
Briefly: ELISA, antigen coated at 2 ug/ml.

The target of assay [5] is T5, Jo1 antigen (UniProt P12081 2-509).
T5 sequence (looked up): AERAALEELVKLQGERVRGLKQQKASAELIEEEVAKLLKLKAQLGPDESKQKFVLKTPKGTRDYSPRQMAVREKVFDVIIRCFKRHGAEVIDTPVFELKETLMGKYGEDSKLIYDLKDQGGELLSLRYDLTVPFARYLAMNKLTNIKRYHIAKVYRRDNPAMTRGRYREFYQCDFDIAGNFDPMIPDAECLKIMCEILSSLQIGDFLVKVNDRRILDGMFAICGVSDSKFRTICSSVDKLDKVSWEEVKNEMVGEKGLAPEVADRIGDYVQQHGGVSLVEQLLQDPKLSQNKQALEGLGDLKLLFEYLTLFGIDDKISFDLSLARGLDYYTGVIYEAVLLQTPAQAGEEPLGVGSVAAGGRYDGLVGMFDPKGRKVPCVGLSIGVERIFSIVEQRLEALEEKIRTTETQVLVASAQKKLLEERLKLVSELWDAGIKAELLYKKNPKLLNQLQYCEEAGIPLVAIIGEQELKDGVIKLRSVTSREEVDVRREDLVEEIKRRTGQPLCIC
Briefly: Luminex AtheNA Multi-Lyte ANA test.

The target in assay [6] is T6, scleroderma 70 (UniProt P11387 2-765).
T6 construct: also called Scl 70
T6 sequence (looked up): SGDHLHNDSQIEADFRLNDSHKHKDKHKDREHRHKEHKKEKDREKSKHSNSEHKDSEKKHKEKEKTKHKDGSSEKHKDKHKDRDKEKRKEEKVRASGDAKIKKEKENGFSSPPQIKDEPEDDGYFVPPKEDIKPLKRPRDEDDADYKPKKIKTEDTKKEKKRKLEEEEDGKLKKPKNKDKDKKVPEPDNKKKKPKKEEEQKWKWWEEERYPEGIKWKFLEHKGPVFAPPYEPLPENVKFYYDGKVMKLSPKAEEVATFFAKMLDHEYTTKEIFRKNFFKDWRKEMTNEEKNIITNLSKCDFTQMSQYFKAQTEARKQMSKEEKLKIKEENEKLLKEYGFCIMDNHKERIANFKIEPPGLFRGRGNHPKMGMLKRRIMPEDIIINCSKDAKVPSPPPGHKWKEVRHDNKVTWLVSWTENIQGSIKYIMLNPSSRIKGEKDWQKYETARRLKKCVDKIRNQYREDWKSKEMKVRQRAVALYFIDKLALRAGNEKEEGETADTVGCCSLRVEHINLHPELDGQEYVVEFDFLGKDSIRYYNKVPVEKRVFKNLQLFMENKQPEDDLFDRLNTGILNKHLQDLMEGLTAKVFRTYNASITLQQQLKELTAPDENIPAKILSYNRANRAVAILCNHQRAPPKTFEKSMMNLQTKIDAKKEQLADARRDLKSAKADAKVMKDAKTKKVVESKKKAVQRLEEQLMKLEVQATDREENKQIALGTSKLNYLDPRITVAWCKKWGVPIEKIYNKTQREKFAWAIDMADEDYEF
Briefly: Luminex AtheNA Multi-Lyte ANA test.

Assay [7] concerns the target T7, centromere B (UniProt P07199 2-599).
T7 construct: also called CentrB
T7 sequence (looked up): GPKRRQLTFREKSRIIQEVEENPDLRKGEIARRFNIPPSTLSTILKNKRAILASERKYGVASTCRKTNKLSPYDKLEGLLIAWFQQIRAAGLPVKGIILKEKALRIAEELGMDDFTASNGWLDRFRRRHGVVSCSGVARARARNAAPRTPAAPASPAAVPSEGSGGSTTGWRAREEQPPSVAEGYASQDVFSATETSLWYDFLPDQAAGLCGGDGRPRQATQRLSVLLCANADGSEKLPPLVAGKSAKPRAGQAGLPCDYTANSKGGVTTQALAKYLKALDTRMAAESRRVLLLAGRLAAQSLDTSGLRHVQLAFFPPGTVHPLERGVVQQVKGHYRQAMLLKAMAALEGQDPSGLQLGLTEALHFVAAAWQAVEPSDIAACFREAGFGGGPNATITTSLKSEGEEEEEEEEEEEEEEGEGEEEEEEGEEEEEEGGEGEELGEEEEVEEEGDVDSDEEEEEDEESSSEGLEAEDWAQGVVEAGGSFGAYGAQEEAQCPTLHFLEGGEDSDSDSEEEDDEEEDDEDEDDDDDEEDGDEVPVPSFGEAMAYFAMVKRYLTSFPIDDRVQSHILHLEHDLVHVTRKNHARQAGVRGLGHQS
In words: Luminex AtheNA Multi-Lyte ANA test.

Assay [8] addresses T8, Sjogren syndrome antigen B (UniProt P05455 1-408).
T8 construct: also called SSB; SS-B/La
T8 sequence (looked up): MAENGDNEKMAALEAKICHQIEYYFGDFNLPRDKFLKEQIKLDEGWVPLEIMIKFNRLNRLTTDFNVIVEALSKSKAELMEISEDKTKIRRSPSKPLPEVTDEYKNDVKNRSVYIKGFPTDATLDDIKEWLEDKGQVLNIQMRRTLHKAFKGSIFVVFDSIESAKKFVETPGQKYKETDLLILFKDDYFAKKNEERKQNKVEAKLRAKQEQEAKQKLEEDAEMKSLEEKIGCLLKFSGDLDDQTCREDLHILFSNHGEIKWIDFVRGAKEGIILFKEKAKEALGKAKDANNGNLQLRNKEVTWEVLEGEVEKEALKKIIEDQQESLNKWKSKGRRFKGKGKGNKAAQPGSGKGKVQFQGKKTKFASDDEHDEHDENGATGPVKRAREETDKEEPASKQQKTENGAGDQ
In words: Luminex AtheNA Multi-Lyte ANA test.

What is called Kd is the concentration at which binding is half-saturated. Higher therefore signals a looser complex.

B1: 35022 antibody (antibody, V domains shown)
VH: QGQLVQSGAELKKPGASVKISCKTSGYRFNFYHINWIRQTAGRGPEWMGWISPYSGDKNLAPAFQDRVIMTTDTEVPVTSFTSTGAAYMEIRNLKFDDTGTYFCAKGLLRDGSSTWLPYLWGQGTLLTVSS
VL: QSVLTQSASVSGSLGQSVTISCTGPNSVCCSHKSISWYQWPPGRAPTLIIYEDNERAPGISPRFSGYKSYWSAYLTISDLRPEDETTYYCCSYTHNSGCVFGTGTKVSVL
notes: also called 35022 mAb
Regarding B1, binding in assay [1] was characterised by a dissociation constant (Kd) of 5.6 nM. The binding result in assay [2], in assay [3], in assay [4], in assay [5], in assay [6] and in assay [7] was “no binding” in each case. Besides, the binding result in assay [8] is “no binding”.

The values above are taken from patent WO2015103549A1 (dated 2015).
